Here are results for two substances from US20220211018A1.

In data set [1] the target is human thrombomodulin (hTBM) expressed from the B200 vector on porcine aortic endothelial cells (UniProt P07204).
Another data set addresses collagen agonist. The experiment in a line: cell-based or functional assay. The note with it: scale: % more aggregation than the monoallelic vWF edit blood.

Sequence of UniProt P07204 (P07204 whole entry, looked up): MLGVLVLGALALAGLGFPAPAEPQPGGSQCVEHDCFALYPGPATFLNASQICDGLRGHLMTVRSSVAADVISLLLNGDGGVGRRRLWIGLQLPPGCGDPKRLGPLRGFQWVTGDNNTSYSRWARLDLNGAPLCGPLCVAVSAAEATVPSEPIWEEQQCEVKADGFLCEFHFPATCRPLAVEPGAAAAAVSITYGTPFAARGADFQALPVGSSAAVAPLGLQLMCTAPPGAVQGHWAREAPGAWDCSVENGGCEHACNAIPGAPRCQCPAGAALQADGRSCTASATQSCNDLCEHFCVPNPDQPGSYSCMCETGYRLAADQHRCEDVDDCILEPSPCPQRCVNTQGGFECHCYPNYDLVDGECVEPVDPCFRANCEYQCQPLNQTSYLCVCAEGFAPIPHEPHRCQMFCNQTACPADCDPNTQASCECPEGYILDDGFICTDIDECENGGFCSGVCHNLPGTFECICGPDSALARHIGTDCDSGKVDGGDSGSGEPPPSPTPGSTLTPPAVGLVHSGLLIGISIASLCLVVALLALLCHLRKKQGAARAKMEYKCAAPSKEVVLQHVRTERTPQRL

For the substance human thrombin, the “activated protein C (APC) assay on pAEC: human thrombin and human Protein C added, Chromogenix S-2366 substrate, absorbance at 405 nm, nM APC/mg protein” value in data set [1] is “pAEC from a transgenic pig expressing hTBM and hEPCR from the B200 vector showed a significantly elevated APC levels when compared to GTKO transgenic pig control”.
“porcine von Willebrand factor (unmodified) (from UniProt Q28833 438-2482)” showed a whole blood platelet aggregation (Chrono-log Whole Blood Aggregometer) after collagen agonist (2 ug/mL) with collagen agonist of 50.
